In patent publication US20180244746A1 (INSERM INSTITUT NATIONAL DE LA SANT ET DE LA RECHERCHE M …, published 2018):

T1: zinc transporter (ZnT)8 peptide on HLA-A*02:01 (human)
T1 peptide: AVAANIVLTV

T2: zinc transporter (ZnT)8 peptide on HLA-A*02:01 (human)
T2 peptide: VAANIVLTV

B1: ZnT8185-194 peptide (AVAANIVLTV) (peptide)
peptide: AVAANIVLTV
notes: Synthesized by ChinaPeptides at >85% purity
B2: ZnT8186-194 peptide (VAANIVLTV) (peptide)
peptide: VAANIVLTV
notes: as for B1
B3: D010R 1E2 (TCR)
alpha TRAV35*02 TRAJ36*01 CDR3: CAGTRNNLFF
beta TRBV19*01 TRBJ2-7*01 CDR3: CASGGSSYEQYF
B4: D010R 12B4 (TCR)
alpha TRAV1-2*01 TRAJ26*01 CDR3: CAVDNYGQNFVF
beta TRBV19*01 TRBJ2-3*01 CDR3: CASTGLAGTQYF
B5: H328C 9B3 (TCR)
alpha TRAV21*01 TRAJ57*01 CDR3: CAVVRTQGGSEKLVF
beta TRBV9*01 TRBJ1-6*02 CDR3: CASSPWTGIPYNSPLHF
B6: H328C 9C8 (TCR)
alpha TRAV25*01 TRAJ26*01 CDR3: CAGILSYGQNFVF
beta TRBV25-1*01 TRBJ1-2*01 CDR3: CASSEVGQGFNGYTF

Key:
[1] = target: T3, recombinant HLA-A2 molecules (human); test: stability measurement of recombinant HLA-A2 molecules complexed with the peptide (method not described; data not shown)
T3 construct: also called HLA-A*02:01

[2] = target: T3, recombinant HLA-A2 molecules; test: affinity measurement of recombinant HLA-A2 molecules complexed with the peptide (method not described; data not shown); ZnT8185-194 (…), the longer variant
[3] = target: T3, recombinant HLA-A2 molecules; test: affinity measurement of recombinant HLA-A2 molecules complexed with the peptide (method not described; data not shown); ZnT8186-194 (…), the shorter epitope
[4] = target: T1, zinc transporter (ZnT)8 peptide on …; test: multimer staining
[5] = target: T2, zinc transporter (ZnT)8 peptide on …; test: multimer staining

Row | Binder | t1/2 (stability of the peptide/HLA-A2 complex) [1] [h] | Kd [2] [nM] | Kd [3] [nM] | binding result [4] | binding result [5]
1 | B1 | 2.3 | 207 |  |  | 
2 | B2 | 1.8 |  | 15 |  | 
3 | B3 |  |  |  | recognises | recognises
4 | B4 |  |  |  |  | recognises
5 | B5 |  |  |  | recognises | recognises
6 | B6 |  |  |  | recognises | recognises
